Biological target: T1, NKG2D receptor on NK cells freshly isolated from C57BL6 or on KY-2 cells (murine NK cell line) (murine) (UniProt O54709)
T1 sequence (looked up): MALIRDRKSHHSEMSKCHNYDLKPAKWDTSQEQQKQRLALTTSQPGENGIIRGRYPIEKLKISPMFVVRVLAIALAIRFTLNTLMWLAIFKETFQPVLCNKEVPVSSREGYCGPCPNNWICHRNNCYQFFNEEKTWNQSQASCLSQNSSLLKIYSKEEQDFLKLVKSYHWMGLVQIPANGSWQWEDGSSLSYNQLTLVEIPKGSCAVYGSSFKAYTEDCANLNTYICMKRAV
Assay: cell-based or functional assay

anti-HER2 IgG3-CH3-Rae-1β fusion protein (from UniProt P01860 1-377; O08603 29-229)
NK cell-mediated killing (direct lysis, KY-2 effector cells): 15 to 59% | redirected lysis of P815 or J774 cells by KY-2 cells: < 22%

From US20070071759A1
